B1: Receptor Interacting Protein Kinase-3 (RIPK3) (enzyme, human, UniProt Q9Y572 1-518, looked up)
chain: MSCVKLWPSGAPAPLVSIEELENQELVGKGGFGTVFRAQHRKWGYDVAVKIVNSKAISREVKAMASLDNEFVLRLEGVIEKVNWDQDPKPALVTKFMENGSLSGLLQSQCPRPWPLLCRLLKEVVLGMFYLHDQNPVLLHRDLKPSNVLLDPELHVKLADFGLSTFQGGSQSGTGSGEPGGTLGYLAPELFVNVNRKASTASDVYSFGILMWAVLAGREVELPTEPSLVYEAVCNRQNRPSLAELPQAGPETPGLEGLKELMQLCWSSEPKDRPSFQECLPKTDEVFQMVENNMNAAVSTVKDFLSQLRSSNRRFSIPESGQGGTEMDGFRRTIENQHSRNDVMVSEWLNKLNLEEPPSSVPKKCPSLTKRSRAQEEQVPQAWTAGTSSDSMAQPPQTPETSTFRNQMPSPTSTGTPSPGPRGNQGAERQGMNWSCRTPEPNPVTGRPLVNIYNCSGVQVGDNNYLTMQQTTALPTWGLAPSGKGRGLQHPPPVGSQEGPKDPEAWSRPQGWYNHSGK
notes: Endogenous protein in human brain sections

Assays:
[1] = molecular target: T1, Receptor Interacting Protein Kinase-1 (RIPK1) (human, UniProt Q13546 1-671); assay: confocal co-localization in co-labeled human brain sections
T1 construct: Endogenous protein in human AD and CTL brain extracts (TBS/Triton-X100) and in human cell lysates; also called RIP1
T1 sequence (looked up): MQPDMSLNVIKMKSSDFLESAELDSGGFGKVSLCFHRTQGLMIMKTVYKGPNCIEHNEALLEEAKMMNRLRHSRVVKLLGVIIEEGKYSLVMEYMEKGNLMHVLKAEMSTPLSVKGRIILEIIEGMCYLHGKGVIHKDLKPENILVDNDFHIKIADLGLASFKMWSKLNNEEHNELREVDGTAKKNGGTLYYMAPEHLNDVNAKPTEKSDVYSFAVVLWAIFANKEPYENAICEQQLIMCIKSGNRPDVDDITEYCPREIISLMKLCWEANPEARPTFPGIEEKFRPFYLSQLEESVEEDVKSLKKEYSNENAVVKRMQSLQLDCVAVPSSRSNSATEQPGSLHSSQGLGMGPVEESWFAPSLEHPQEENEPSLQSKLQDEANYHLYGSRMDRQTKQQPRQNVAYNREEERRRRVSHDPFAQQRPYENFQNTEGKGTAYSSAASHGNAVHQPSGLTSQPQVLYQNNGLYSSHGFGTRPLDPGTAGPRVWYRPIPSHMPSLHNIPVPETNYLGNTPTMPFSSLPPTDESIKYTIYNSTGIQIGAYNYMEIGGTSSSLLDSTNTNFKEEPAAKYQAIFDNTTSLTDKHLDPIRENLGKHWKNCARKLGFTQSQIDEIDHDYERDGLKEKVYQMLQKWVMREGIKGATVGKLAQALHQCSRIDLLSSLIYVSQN
Protocol: (§1) The tissue was then washed in water and let dry overnight. The next day the slides were cleared in xylene and coverslipped with DPX mounting solution (Sigma-Aldrich). The immunohistochemistry on the brain sections from APP/PS1 was conducted following a similar protocol as we previously detailed 49. In this case, sections were stained with an anti-A(342 specific antibody (1:200; Millipore, catalog number AB5078P) and with a neuronal marker NeuN (1:200, Millipore, catalog number MAB377), Iba1 (Wako), GFAP (Cell Signaling) and GFP (1:200, Thermo Fisher Scientific, catalog number A-11122).
(§2) Confocal microscopy and image analysis: All images were acquired at a resolution size of x=1024, y=1024, and z=1, using a 63× oil immersion objective and zoom of 1.5 using the Leica DM 2500 confocal microscope. Image fields within the x-y plane of the tissue section were randomly selected. For each image acquired, channels were split to allow separate pixel quantification in both the 561 nm and 635 nm channels. To quantify total protein in each image field, channels were split and the integrated signal density of each channel was quantified using ImageJ software. Human brain tissue sections immunostained for RIPK1, RIPK3, MLKL, and pMLKL were analyzed to measure absolute protein levels, as well as co-localization between RIPK1 and RIPK3, RIPK3 and MLKL, and RIPK1 and MLKL. […]

[2] = molecular target: B1; assay: as above
Protocol: as §1, §2

Q: Does B1 bind [1]?
A: binds

B2: Mixed Lineage Kinase Domain-Like (MLKL) (other)
chain: MENLKHIITLGQVIHKRCEEMKYCKKQCRRLGHRVLGLIKPLEMLQDQGKRSVPSEKLTTAMNRFKAALEEANGEIEKFSNRSNICRFLTASQDKILFKDVNRKLSDVWKELSLLLQVEQRMPVSPISQGASWAQEDQQDADEDRRAFQMLRRDNEKIEASLRRLEINMKEIKETLRQYLPPKCMQEIPQEQIKEIKKEQLSGSPWILLRENEVSTLYKGEYHRAPVAIKVFKKLQAGSIAIVRQTFNKEIKTMKKFESPNILRIFGICIDETVTPPQFSIVMEYCELGTLRELLDREKDLTLGKRMVLVLGAARGLYRLHHSEAPELHGKIRSSNFLVTQGYQVKLAGFELRKTQTSMSLGTTREKTDRVKSTAYLSPQELEDVFYQYDVKSEIYSFGIVLWEIATGDIPFQGCNSEKIRKLVAVKRQQEPLGEDCPSELREIIDECRAHDPSVRPSVDEILKKLSTFSK
notes: Endogenous protein in human brain extracts and HAP1 cells
Q: Does B2 bind [2]?
A: binds

Source: US20180094248A1 (ARIZONA BOARD OF REGENTS ON BEHALF OF ARIZONA STATE …, published 2018)
